In a protein production outcome set (Wang et al. 2014):

Assay: label from the status in PepcDB records

Question: For “MSTQSEAILEENLLKQLVSLGYEKVLIRDEAELLANLKAQLERHNKITLDDMEFSRILNHLNKGNVFEKAKILRDKFALTREDGTTKYIEFLDTERWCQNLFQVTHQVTIEGSYKNRYDVTILINGLPLVQIELKRRGLELKEAFNQINRYQRHSYGANSALFHYVQIFVISNGVNTKYYANNRNQSFKQTFFWADKENKNITNLNEFTDLFLEPCHISKMICKYVVLAEATKTLMILRPYQYHATEAIIDRVVNTNKNGYIWHTTGSGKTLTSFKTAQILMKLPNVHKVVFVVDRKDLDYQTTKEFNSFSQGSVDGTDNTASLVRQFSDDTRLIVTTIQKLNTAINKQRYLEKMKNLRDKRIVFIFDECHRSQFGDTHRNITKFFNNYQMIGFTGTPIFADNATGNKFGKRTTKELFDECLHKYVITDAIADENVLKFSVEYIGRYKEREGSQNNLDIEVEDIDTKELLESPERLEKIVDYIIAHHDRKTHSKEFTAMMCVSSVDVLTKYYELFRSKQHGLKIATIFSYSTNEDDKDANGLDSLEESDGAHVDEEHINMHSRDKLEEYIAHYNTMFGTNFTTKDSQSFYNYYNDISKRVKNQEVDILLVVNMFLTGFDSKTLNTLYVDKNLKYHGLIQAFSRTNRILNEKKSQGNILCFRNLKKATDAAIALFSNKNAKEIILMKSYEEYVEKFIEALKKLKEIAPTIDSVDSLYDEESKLEFIKAFRELMRIQNILGSFADFSFADLGIAEQEFEEYKSKYLDIHDTIKREGKEKVSILEDVDFELELIHKDEINVTYILKLLAQLKDASEQEHQTQRQNIINIINGNAQLRSKRELIERFIDAHLMSLEDIDMVDGAFEKFWNEEKLKAFDALCEEENLNKEKVKKVVDTYLYDERPPLSDDIANTLNIKPKLLERRKVVPRVLDKIMTFVDRFYT”, which protein production is on record?
Answer: The protein production was “failed”.

Question: Which protein production does the source give for “MSKAQKRKRLNKYDGESKTPANKSTVDGGNPYPTLLRPTAEECRDVRDALLSLHGFPPEFANYRRQRLRSFSAVDDHDTQCNLKSETLNETEEESVLDGLVKILLSQNTTESNSQRAFASLKATFPKWDDVLNAESKSIENAIRCGGLAPKKAVCIKNILNRLQNERGRLCLEYLRGLSVEEVKTELSHFKGVGPKTVSCVLMFNLQHNDFPVDTHVFEIAKALGWVPKTADRNKTYVHLNRKIPDELKFDLNCLLYTHGKICSNCKKNVAKPKAKVASPDDCPLVGFYDLIV” here?
Answer: The protein production was “failed”.

Question: Which protein production does the source give for “MSFVKKTKNFFGLDGEADPYMEHSDAYYDEPRYEPAPAYSAPRYEEPIYASARPRAARPMPTHIVPVRLLTYSDAAIKVGDPFRDGDAVVFDMSDMHKGEAKRIIDFAAGLCFALRGQMRKLDGRIFALVPESASVDENDLKHAAGLIHLEHHHHHH” here?
Answer: The protein production was “failed”.

Question: Which protein production does the source give for “MNSLSVIKPNNAMPMTAEYRQSIRTALKTSLYPGASDTSVDMVLAYCQAADLDPMTKPVHIVPMWIPEKKVDGRVMSSAGMRDVIMPGIELYRTKAHRTGEYAGQDEAVFGDTVCETLGGVQIRYPSWCRIAVYRMVAGERVRFAATVYWLEAYATARKDSPAPNSMWQKRPFGQLEKCAEALALRKAFPEAVGAQPTAEEMDAGRHTIEGETIHVAPIPVNKDIRDISGPYPQEEFEKNFPKWCDLIESGKTTADRIITMLHSKGKGQLSLEQLTAIRACAEDTSAEPVPTDNTPQESNTTDTEENT” here?
Answer: Its protein production is “not failed”.

Question: Which protein production does the source give for “MTLLRVGGVPEPFNEIFMQAQEGALPSTKLQVEFLGVAGGSGAALEMLAKCELDVAVTLTESAVARTKAAASGLAVHSVYVASPLAWGVAVSSKKTDWTDLNSLDAAVLRGESIRAGFSRRGSGSHLLLSVFASDRGWISTGIQNDILKSFECGSFDGLIQAAVAGDIDMFLWETCFTKECAATRQGLIRLVGEYAPSWPAFVLVCRDDAHVRAAVSELKREIEPLQRKFCTGEGLDILQNKYGFSLESAKLWLSRLQFAEPDEALSAEQWRSVERALELTAGSRSSSR” here?
Answer: The protein production was “not failed”.

Question: Which protein production does the source give for “MREETKCALIIDESLPLGLIANTAAILGAALGKNKPDLIGETVTDGSGIDHLGIVKIPIPILKGNAELLHQLSQKLLTDEFNDILTVDFTDVAQSIHTYEAYIEAFQSTAASDYRYFGIGICGDKKKVARLTGSLGLLRLEHHHHHH” here?
Answer: Its protein production is “not failed”.

Question: Which protein production does the source give for “MAAVSPAAAARSAAAAVRDGGEMVRRMTPQDLDRIAQAVAEAEKTTAGEIFCVLTPEVSDYRETPLVWAAASALVLPAGALLAGFRPEMLTRLFGGWSVGHQAAHDGAILSALSTYIVLQLVVFVVAALVVSIPPVRRALTPGALKTARVKRAAMEQFLSHGLHVTRDRTGVLIFAALAEHRVEVIADEGIYKAAPNAVWNEVVADLVAGLKRGKIADGFVAAVARTGGILAAHVPPRGDDRNELSDGLTILPRR” here?
Answer: The protein production was “failed”.

Question: Which protein production does the source give for “MITMKISSRFSIAVHILSILKNNPSSLCTSDYMAESVNTNPVVIRKIMSYLKQAGFVYVNRGPGGAGLLKDLHEITLLDVYHAVNVVEEDKLFHIHEQPNPDCPIGANIQAVLEIILIQAQSAMEEVLRNITMGQLFETLQEKMNA” here?
Answer: Its protein production is “not failed”.

Question: Which protein production does the source give for “SAQGLIEVERKFAPGPDTEERLQELGATLEHRVTFRDTYYDTSELSLMLSDHWLRQREGSGWELKCPGVTGVSGPHNEYVEVTSEAAIVAQLFELLGSGEQKPAGVAAVLGSLKLQEVASFITTRSSWKLALSGAHGQEPQLTIDLDSADFGYAVGEVEAMVHEKAEVPAALEKIITVSSMLGVPAQEEAPAKLMVYLQRFRPLDYQRLLEAASSGEATGDSAS” here?
Answer: Its protein production is “not failed”.

Question: For “MKNRTKSRWKKIVLGIGLFLAVLVIGLTIFIKNSTYQATDSALKISQSATQEKNYDYYTNGQKNDTALIFYPGALVAPASYSEWAQEVATKGYDVYVVHFPLNLAVLAPNAAEQIIKDHPQQNFVLAGHSLGGVMASRFVAENEQRIKGMIYLASYPDEKGALNKKNLPVLSITATNDGVLNWTSYQKAKQFLPKDTQYVSIEGGNHAGFGNYGVQKGDSKATISNEQQQTEISQLIVAWLQSRPNK”, which protein production is on record?
Answer: Its protein production is “failed”.

Question: With “MIKERPKFNWLHLLIFIVVVEAIGSLSAWLAGDIKAVYNGLNLPVLSPPDGLFGIVWPILYALIAIAGYLVFQQATTHRDRLMDATLFGIQLLLNFIWSIIFFSQSAYWWGLVIIIVLDLVVLLCILRFYRSSRLAAILMVPYLVWICFATYLTLGVALLN” as the sequence, how does the protein production read?
Answer: The protein production was “failed”.

Question: For “MEQQHPTIHTLKIETEFFKAVKERRKTFEIRKNDRNFQVGDILILEEYMNGMYLDDECEAEVIYITDYAQREGYVVLGIELH”, which protein production is on record?
Answer: Its protein production is “not failed”.

Question: Which protein production does the source give for “KKLANADANNDSRVYVAVDGDIGVGYATMKVFMLSNDEYKILSGKYPRQVPVVMLDQIAVDKAYQGKGIGKRLMRKVLEATVLVNELAAAKGLALWAHPRAKDFYESLGFEAIPDATKQVQDVELTLMFIHVETILDALK” here?
Answer: Its protein production is “failed”.

Question: Which protein production does the source give for “SAAHQMDSITYSNNVTQQYIQPQSLQDISAVEDEIQNKIEAARQESKQLHAQINKAKHKIQDASLFQMANKVTSLTKNKINLKPNIVLKGHNNKISDFRWSRDSKRILSASQDGFMLIWDSASGLKQNAIPLDSQWVLSCAISPSSTLVASAGLNNNCTIYRVSKENRVAQNVASIFKGHTCYISDIEFTDNAHILTASGDMTCALWDIPKAKRVREYSDHLGDVLALAIPEEPNSENSSNTFASCGSDGYTYIWDSRSPSAVQSFYVNDSDINALRFFKDGMSIVAGSDNGAINMYDLRSDCSIATFSLFRGYEERTPTPTYMAANMEYNTAQSPQTLKSTSSSYLDNQGVVSLDFSASGRLMYSCYTDIGCVVWDVLKGEIVGKLEGHGGRVTGVRSSPDGLAVCTGSWDSTMKIWSPGYQ” here?
Answer: Its protein production is “failed”.

Question: For “MVIIDWSLSVDRTIPKPLRIILRGVGQVFFCCNAVTGLIFLMALYIGGVTAGLAATAGVFSSTIAAHLLGFPEKDIDAGLYGFNGTLVGPCLFLFLENSPQLWLYVVLASILSTIVLAALMRILQPCDIPASTAPFILTCWMFMAAVYAFDSFSRGPLLPTAGIPVEAANISMIPVEIGYMAAAKGISEVMFADSVVVGILFLAGIAIHSLRGAAMALAGAIVGIVIPVLLGMDKSLIEMGLYAFNPVLAMMAVGWAFLKPSGRSMGLAFLAGIFTVICQAGLTGFLTPLGLPVLTFPFVLVMWVFLLAASRSKYWEYLNQGK”, which protein production is on record?
Answer: Its protein production is “failed”.

Question: Which protein production does the source give for “MTQANLSETLFKPRFKHPETSTLVRRFSHGAQPPVQSALDGKTIPHWYRMINRLMWIWRGIDPREILDVQARIVMSDAERTDDDLYDTVIGYRGGNWIYEWATQAMVWQQKACAEEDPQLSGRHWLHAATLYNIAAYPHLKGDDLAEQAQALSNRAYEEAAQRLPGTMRQMEFTVPGGAPITGFLHMPKGDGPFPTVLMCGGLDAMQTDYYSLYERYFAPRGIAMLTIDMPSVGFSSKWKLTQDSSLLHQHVLKALPNVPWVDHTRVAAFGFRFGANVAVRLAYLESPRLKVVACLGPVVHTLLSDFKCQQQVPEMYLDVLASRLGMHDASDEALRVELNRYSLKVQGLLGRRCPTPMLSGYWKNDPFSPEEDSRLITSSSADGKLLEIPFNPVYRNFDKGLQEITDWIEKRLC” here?
Answer: The protein production was “failed”.

Question: With “MERKLGISLYPEHSTKEKDMAYISAAARHGFSRIFTCLLSVNRPKEEIVAEFKEIINHAKDNNMEVILDVAPAVFDQLGISYSDLSFFAELGADGIRLDVGFDGLTEAKMTNNPYGLKIELNVSNDIAYLENILSHQANKSALIGCHNFYPQKFTGLPYDYFIRCSERFKKHGIRSAAFITSHVANIGPWDINDGLCTLEEHRNLPIEVQAKHLWATGLIDDVIIGNAYASEEELEKLGNLNRYMLQLKVHFVDEATEVEKRATLQELHVRRGDITEYMVRSTEVRKKYKDYDFPVRESVLQERGQVVIGNNSFGKYKGELQIILKEMPIDERKNIVGTIAEEELFLLDYVGAWTQFTCVE” as the sequence, how does the protein production read?
Answer: The protein production was “not failed”.

Question: For “MRSRVVREGSVGLMLVAGVGALAGLIFWLRGVSLGQDRYDVIVEFNDTAGLTVGTPVIYRGVQVGQVIDITAQSNSVLVRIQIQPASLAIPRDSVISAQISSLLGSPNLTIEPKRNIPAEVLAKTQPRSPNCDRAVILCNGSVVEGAQSASFASILTSIATLVSEIEQAKLVNTLSQTSRDASEAARSIRQLSSSLQQQIPPLRETLNAAQGAASQVEAAIAENRQSVRTTLTNLESSSQELQDILNSLEPAIDKANSGKLVDNLNELSANLAVASRNIRDVSTALNSPENLLTLQQTLDSARITFQNAQKITTDLNRLTGDPAVIENIRRLINSLGRLLSSTGALQEQVTDLKSLPLLPVSESPAGEAVVRRPNQP”, which protein production is on record?
Answer: Its protein production is “failed”.

Question: For “MRIAILGGGVAGSTLAYLLSRINYEVTIFDINQHYVKPCGDIVPNIYTPPFNWKETFGIRRFSFYIDGEKIYDVEYRHTKWLVIDKWKWINDMRKSSKVIVTHDNNAKEFDYVIDSRGPYPMDREVVYTTRAIIETEEFDDEAILEFNTRYTGFYWIFPSKENEYNIGAGFLEYKNSKELLNYYLRKRFKNFEVKDIRGAPISIGSVKNKKLRIGEARGLVFPLSGEGIRPSAISAEYAFEAIHKEKDLDGFLNEKLSIIEKRIKIQKMLLDLYRYSSLNLRKTFMRIFFKNEVLIDTYLEDKMDLNGIIESLKSVRANGGIIRKFEEQERLEHHHHHH”, which protein production is on record?
Answer: The protein production was “failed”.

Question: For “MFSKLKKTWYADDFSYFIRNFGVFTLIFSTMTLIILQVMHSSLYTSVDDKLHGLSENPQAVIQLAINRATEEIKDLENARADASKVEIKPNVSSNTEVILFDKDFTQLLSGNRFLGLDKIKLEKKELGHIYQIQVFNSYGQEEIYRVILMETNISSVSTNIKYAAVLINTSQLEQASQKHEQLIVVVMASFWILSLLASLYLARVSVRPLLESMQKQQSFVENASHELRTPLAVLQNRLETLFRKPEATIMDVSESIASSLEEVRNMRFLTTSLLNLARRDDGIKPELAEVPTSFFNTTFTNYEMIASENNRVFRFENRIHRTIVTDQLLLKQLMTILFDNAVKYTEEDGEIDFLISATDRNLYLLVSDNGIGISTEDKKKIFDRFYRVDKARTRQKGGFGLGLSLAKQIVDALKGTVTVKDNKPKGTIFEVKIAIQTPSKKKK”, which protein production is on record?
Answer: Its protein production is “failed”.

Question: Which protein production does the source give for “MGRVYLVGAGPGDPELLTLKAYRLLKEAPVVLYDRLVDERVLALAPGEKVYVGKEEGESEKQEEIHRLLLRHARAHPFVVRLKGGDPMVFGRGGEEVLFLLRHGVPVEVVPGVTSLLASGLPLTHRGLAHGFAAVSGVLEGGGYPDLRPFARVPTLVVLMGVGRRVWIAKELLRLGRDPREPTLFVERASTPKERRVHARLEEVAEGKVEVRPPALWILGEVVRVFAEKEAPVDALALGG” here?
Answer: Its protein production is “not failed”.
